In data set [1] the test system is CSC[C@H]1O[C@@H](n2cnc3c(N)ncnc32)[C@H](O)[C@@H]1O. The experiment in a line: purified protein. As to conditions: phosphate.
The subject of data set [2] is Nc1ncnc2c1ncn2[C@@H]1O[C@H](CO)[C@@H](O)[C@H]1O. Description: purified protein. As to conditions: phosphate.
Data set [3] addresses Rv0535 (M. tuberculosis methylthioadenosine phosphorylase, MTAP) (Mycobacterium tuberculosis, UniProt O06401). The experiment in a line: HPLC cleavage assay at […]. It is filed as biochemical.

This is an account of results in publication PMC3288397 (2012).

The kcat is the maximal rate divided by the concentration of active sites. A word on the Km: it is the substrate concentration at which the rate is half of its maximum.

Chain of Rv0535 (M. tuberculosis methylthioadenosine phosphorylase, MTAP) (O06401 whole entry): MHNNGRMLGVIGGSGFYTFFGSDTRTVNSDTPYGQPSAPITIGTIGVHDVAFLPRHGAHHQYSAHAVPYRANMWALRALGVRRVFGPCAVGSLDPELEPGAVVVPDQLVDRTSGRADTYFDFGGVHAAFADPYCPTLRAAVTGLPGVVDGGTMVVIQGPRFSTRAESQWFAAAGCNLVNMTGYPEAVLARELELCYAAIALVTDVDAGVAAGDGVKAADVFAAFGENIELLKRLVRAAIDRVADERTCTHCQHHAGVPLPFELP

On to “Rv0535 (M. tuberculosis methylthioadenosine phosphorylase, MTAP) (Mycobacterium tuberculosis H37Rv)”, for which, in data set [1], the kcat is 0.4 ± 0.2 s⁻¹. Also, the Km in data set [2] came out at 1700 ± 200 µM.

With `Nc1ncnc2c1ncn2[C@@H]1O[C@H](CSCC[C@H](N)C(=O)O)[C@@H](O)[C@H]1O` [S-Adenosyl-L-homocysteine], the “Enzyme Activity (nmoles mg^-1 hr^-1) ^a” value in data set [3] is 800 ± 100 nmol/mg/h.
